For test [1], the target named is Full length UFC1, residues 1–167 (UniProt Q9Y3C8). Description: ITC; VP-ITC, 25 °C; UBA5 peptides (~400 µM) titrated into 20–25 µM binding partner; 25 mM HEPES pH 7.5, 100 mM NaCl; one-site model; a single profile for each interaction.
Test [2] has the same target. The description is as above. This is another data set of the same source.

These results are taken from publication PMC8304084, “A Concerted Action of UBA5 C-Terminal Unstructured Regions Is Important for Transfer of Activated UFM1 to UFC1” (International Journal of Molecular Sciences, 2021).

Like-named read-outs stand apart in the source and are kept apart here.

On to GAMEDSGESLEDLMAKMKNM [UBA5 C-terminal region R3, residues 388–404], for which the Kd in test [1] is > 11 µM. In test [2], the Ka worked out at 30000 M⁻¹, the Kd came out at 10 µM, the dH is -4.99 kcal/mol and the stoichiometry N turned out to be 0.95.
